US20240245796A1 (PROFOUNDBIO US, published 2024)
Where two headings read alike, the source gives them in different places.

What was measured:
[1] = target: T1, human FOLR3 extracellular domain linked to His tag (human, UniProt P41439 23-245, limits assumed); assay: BLI, global 1:1 fit (125 nM row); all responses below quantification
T1 construct: extracellular domain; Antigen in solution in BLI; also called Hu-FRg; not shown: His tag

[2] = target: T1, human FOLR3 extracellular domain linked …; assay: BLI, Ag 31.3 nM; * = below range of quantification
[3] = target: T2, human FOLR2 extracellular domain linked to His tag (human, UniProt P14207 17-230, limits assumed); assay: BLI, Ag 31.3 nM; * = below range of quantification
T2 construct: extracellular domain; Antigen in solution in BLI; also called Hu-FRb; not shown: His tag
T2 sequence (P14207 17-230 limits assumed): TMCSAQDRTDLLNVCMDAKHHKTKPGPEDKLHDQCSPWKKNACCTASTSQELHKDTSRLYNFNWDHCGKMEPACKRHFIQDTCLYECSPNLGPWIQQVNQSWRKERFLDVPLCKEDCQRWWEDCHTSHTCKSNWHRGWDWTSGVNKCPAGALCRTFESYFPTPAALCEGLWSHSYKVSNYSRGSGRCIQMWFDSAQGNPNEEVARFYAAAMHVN

[4] = target: T3, cynomolgus monkey FOLR1 extracellular domain linked to His tag (cynomolgus monkey, UniProt A0A2K5U044 25-233); assay: BLI, global 1:1 fit (7.82 nM row)
T3 construct: extracellular domain; Antigen in solution in BLI; It may be the same product as m14; also called Cyno-Ag; not shown: His tag
T3 sequence (A0A2K5U044 entry or part of it): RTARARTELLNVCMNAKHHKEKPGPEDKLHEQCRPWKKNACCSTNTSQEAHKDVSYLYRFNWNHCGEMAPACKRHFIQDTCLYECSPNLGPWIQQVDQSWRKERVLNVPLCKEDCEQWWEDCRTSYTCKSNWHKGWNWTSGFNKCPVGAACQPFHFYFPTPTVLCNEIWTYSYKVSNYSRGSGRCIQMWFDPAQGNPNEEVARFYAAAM

[5] = target: T4, human FOLR1 extracellular domain linked to His tag (human, UniProt P15328 25-233, limits assumed); assay: BLI, global 1:1 fit (7.82 nM row)
T4 construct: extracellular domain; It may be the same product as m13; also called Hu-FRα; Hu-Ag; not shown: His tag
T4 sequence (P15328 25-233 limits assumed): as the sequence (A0A2K5U044 entry or part of it) above, with T2I, R4W, K37R, P146A, Y171H counted along it

[6] = target: T5, rat FOLR1 extracellular domain linked to His tag (rat); assay: BLI, Ag 15.6 nM; * = below range of quantification
T5 construct: extracellular domain; Antigen in solution in BLI; also called Rat-Ag

[7] = target: T1, human FOLR3 extracellular domain linked …; assay: BLI, global 1:1 fit (62.5 nM row); all responses below quantification
[8] = target: T1, human FOLR3 extracellular domain linked …; assay: BLI, global 1:1 fit (15.6 nM row); all responses below quantification
[9] = target: T3, cynomolgus monkey FOLR1 extracellular …; assay: BLI, Ag 15.6 nM over Ab on anti-hIgG Fc tip
[10] = target: T4, human FOLR1 extracellular domain linked …; assay: BLI, Ag 15.6 nM over Ab on anti-hIgG Fc tip
[11] = target: T4, human FOLR1 extracellular domain linked …; assay: BLI, Ag 125 nM over Ab on anti-hIgG Fc tip
[12] = target: T2, human FOLR2 extracellular domain linked …; assay: BLI, Ag 125 nM over Ab on anti-hIgG Fc tip
[13] = target: T6, mouse FOLR1 extracellular domain linked to His tag (mouse, UniProt P35846 25-232, limits assumed); assay: BLI, global 1:1 fit (125 nM row); only the 500 nM response quantifiable
T6 construct: extracellular domain; Antigen in solution in BLI; also called Mouse-Ag; not shown: His tag
T6 sequence (P35846 25-232 limits assumed): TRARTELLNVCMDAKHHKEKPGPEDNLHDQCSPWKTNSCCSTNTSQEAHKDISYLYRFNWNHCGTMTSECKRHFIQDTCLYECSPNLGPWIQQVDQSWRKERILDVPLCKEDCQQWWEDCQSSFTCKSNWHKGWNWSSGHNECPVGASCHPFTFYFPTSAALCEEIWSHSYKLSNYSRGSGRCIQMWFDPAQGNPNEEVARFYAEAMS

[14] = target: T4, human FOLR1 extracellular domain linked …; assay: BLI, global 1:1 fit (7.82 nM row); remark: listed apart in the source
[15] = target: T2, human FOLR2 extracellular domain linked …; assay: BLI, global 1:1 fit (7.82 nM row)
[16] = target: T1, human FOLR3 extracellular domain linked …; assay: BLI, global 1:1 fit (7.82 nM row); all responses below quantification
[17] = target: T4, human FOLR1 extracellular domain linked …; assay: BLI, Ag 62.5 nM over Ab on anti-hIgG Fc tip
[18] = target: T2, human FOLR2 extracellular domain linked …; assay: BLI, Ag 62.5 nM over Ab on anti-hIgG Fc tip
[19] = target: T4, human FOLR1 extracellular domain linked …; assay: BLI, Ag 250 nM over Ab on anti-hIgG Fc tip
[20] = target: T2, human FOLR2 extracellular domain linked …; assay: BLI, Ag 250 nM over Ab on anti-hIgG Fc tip
[21] = target: T5, rat FOLR1 extracellular domain linked …; assay: BLI, global 1:1 fit (31.3 nM row); all responses below quantification
[22] = target: T6, mouse FOLR1 extracellular domain linked …; assay: BLI, global 1:1 fit (15.6 nM row); only the 500 nM response quantifiable
[23] = target: T3, cynomolgus monkey FOLR1 extracellular …; assay: BLI, Ag 7.82 nM over Ab on anti-hIgG Fc tip
[24] = target: T4, human FOLR1 extracellular domain linked …; assay: BLI, Ag 7.82 nM over Ab on anti-hIgG Fc tip

T1 sequence (P41439 23-245 limits assumed): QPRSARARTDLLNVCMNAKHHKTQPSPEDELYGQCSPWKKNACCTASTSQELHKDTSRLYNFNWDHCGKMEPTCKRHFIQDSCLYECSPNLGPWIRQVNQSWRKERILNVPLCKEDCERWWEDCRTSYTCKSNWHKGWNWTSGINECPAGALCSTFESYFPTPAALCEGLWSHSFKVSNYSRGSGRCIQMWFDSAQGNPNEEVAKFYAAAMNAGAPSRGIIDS

B1: F131 (antibody, V domains shown)
VH: EVQLLESGGGVVQPGRSLRLSCAASGFTFSSYGMHWVRQAPGKGLEWVAVISYDGSNKYYADSVKGRFTISRANSKNTLYLQMNSLRAEDTAVYYCARPRAYYGAYGSSFDYWGQGTQVTVSS
VL: EIVMTQSPSSVSASVGDRVAITCRASQGISSWLAWYQQKPGKAPKLLIYAASSLQSGVPSRFSGSGSGTDFTLTISSLQPEDFATYYCQQSYSTPLTFGGGTKVDIK
notes: also called clone F131; F131 mAb
B1 showed a koff [1] of 0.217 s⁻¹, a kon [1] of 1660 M⁻¹ s⁻¹ and a Response [2] of 0.0028. The Response [3] was 0.0068, the Kd [4] was 8.15 nM and the koff [4] was 0.00157 s⁻¹. It also gave a kon [4] of 193000 M⁻¹ s⁻¹, a Kd [5] of 1.53 nM and a koff [5] of 0.000338 s⁻¹. The kon [5] was 221000 M⁻¹ s⁻¹, the Response [6] was -0.00395 and the koff [7] was 0.217 s⁻¹. For the same binder, the kon [7] was 1660 M⁻¹ s⁻¹, the koff [8] was 0.217 s⁻¹ and the kon [8] was 1660 M⁻¹ s⁻¹. For the same binder, the Response [9] was 0.0485, the Response [10] was 0.0503 and the Response [11] was 0.144. For the same binder, the Response [12] was 0.0188, the Kd [13] was 2960 nM and the koff [13] was 0.301 s⁻¹. It also gave a kon [13] of 102000 M⁻¹ s⁻¹, a Kd [14] of 5.3 nM and a koff [14] of 0.0012 s⁻¹. For the same binder, the kon [14] was 226000 M⁻¹ s⁻¹, the Kd [15] was 142 nM and the koff [15] was 0.0784 s⁻¹. For the same binder, the kon [15] was 552000 M⁻¹ s⁻¹, the koff [16] was 0.217 s⁻¹ and the kon [16] was 1660 M⁻¹ s⁻¹. For the same binder, the Response [17] was 0.117, the Response [18] was 0.0356 and the Response [19] was 0.178. The Response [20] was 0.0207, the koff [21] was 1.03 s⁻¹ and the kon [21] was 5490 M⁻¹ s⁻¹. The Kd [22] was 2960 nM, the koff [22] was 0.301 s⁻¹ and the kon [22] was 102000 M⁻¹ s⁻¹. For the same binder, the Response [23] was 0.0537 and the Response [24] was 0.04.

B2: F131-LD038 (antibody, V domains shown)
VH: EVQLLESGGGVVQPGRSLRLSCAASGFTFSSYGMHWVRQAPGKGLEWVAVISYDGSNKYYADSVKGRFTISRANSKNTLYLQMNSLRAEDTAVYYCARPRAYYGAYGSSFDYWGQGTQVTVSS
VL: EIVMTQSPSSVSASVGDRVAITCRASQGISSWLAWYQQKPGKAPKLLIYAASSLQSGVPSRFSGSGSGTDFTLTISSLQPEDFATYYCQQSYSTPLTFGGGTKVDIK
modifications: drug-linker LD038 (PB038, maleimide-PEG unit-Val-Cit-PAB-exatecan) on cysteines freed by TCEP reduction; positions not given
notes: Antibody-drug conjugate of F131 (IgG1) with LD038; also called anti-huFOLR-1 conjugate F131-LD038; F131-038
With B2 the koff [1] was 0.233 s⁻¹, the Response [2] was 0.0079 and the Response [3] was 0.0076. The Kd [4] was 8.82 nM, the koff [4] was 0.0016 s⁻¹ and the kon [4] was 181000 M⁻¹ s⁻¹. It also gave a Kd [5] of 4.8 nM, a koff [5] of 0.00107 s⁻¹ and a kon [5] of 224000 M⁻¹ s⁻¹. For the same binder, the Response [6] was -0.00212, the koff [7] was 0.233 s⁻¹ and the koff [8] was 0.233 s⁻¹. It also gave a Response [9] of 0.0384, a Response [10] of 0.0447 and a Response [11] of 0.176. For the same binder, the Response [12] was 0.0161, the Kd [13] was 2870 nM and the koff [13] was 0.266 s⁻¹. The kon [13] was 92600 M⁻¹ s⁻¹, the Kd [14] was 4.79 nM and the koff [14] was 0.00121 s⁻¹. It also gave a kon [14] of 252000 M⁻¹ s⁻¹, a Kd [15] of 84.4 nM and a koff [15] of 0.0813 s⁻¹. The kon [15] was 963000 M⁻¹ s⁻¹, the koff [16] was 0.233 s⁻¹ and the Response [17] was 0.138. The Response [18] was 0.0379, the Response [19] was 0.201 and the Response [20] was 0.0243. It also gave a koff [21] of 0.224 s⁻¹, a kon [21] of 2.64e+06 M⁻¹ s⁻¹ and a Kd [22] of 2870 nM. For the same binder, the koff [22] was 0.266 s⁻¹, the kon [22] was 92600 M⁻¹ s⁻¹ and the Response [23] was 0.0225. For the same binder, the Response [24] was 0.0342.
